Laboratory results reported in patent US20130005646A1 (Novo Nordisk, published 2013).
Starred links: 1 amine or outer side, 2 acyl side, 3 side chain; linkers in the order of their positions; H or OH if unused. Positions of bridges follow the written chain, without caps; N, C: chain ends. Groups on a side chain read outwards from the residue. No end group written: not given here. *: point of attachment. C20 diacid = O=C(O)CCCCCCCCCCCCCCCCCCC(=O)*; C18 diacid = O=C(O)CCCCCCCCCCCCCCCCC(=O)*; γGlu = O=C(O)[C@H](CCC(=O)[*:2])N[*:1]; AEEA = NCCOCCOCC(=O)O

T1: human amylin 3(a) receptor (human calcitonin receptor + RAMP-3) (human, UniProt P30988 25-474; O60896 24-148)
T1 sequence (looked up) 1: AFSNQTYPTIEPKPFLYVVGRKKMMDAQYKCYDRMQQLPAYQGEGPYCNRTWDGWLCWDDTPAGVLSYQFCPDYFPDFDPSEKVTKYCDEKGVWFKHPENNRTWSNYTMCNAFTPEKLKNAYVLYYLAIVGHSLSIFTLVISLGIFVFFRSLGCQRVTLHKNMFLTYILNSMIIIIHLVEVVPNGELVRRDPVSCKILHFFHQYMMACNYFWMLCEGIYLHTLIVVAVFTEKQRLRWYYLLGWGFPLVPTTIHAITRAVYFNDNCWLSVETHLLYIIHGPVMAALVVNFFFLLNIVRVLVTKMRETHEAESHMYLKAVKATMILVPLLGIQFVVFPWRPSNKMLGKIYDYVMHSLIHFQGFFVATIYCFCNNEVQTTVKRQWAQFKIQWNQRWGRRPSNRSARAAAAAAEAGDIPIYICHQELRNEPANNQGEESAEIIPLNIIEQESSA
T1 sequence (looked up) 2: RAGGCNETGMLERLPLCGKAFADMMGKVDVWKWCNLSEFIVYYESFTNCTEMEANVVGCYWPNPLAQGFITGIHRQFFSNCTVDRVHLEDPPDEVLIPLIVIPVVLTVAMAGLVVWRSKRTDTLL

T2: human calcitonin (a) receptor (human, UniProt P30988 25-474)
T2 sequence (looked up): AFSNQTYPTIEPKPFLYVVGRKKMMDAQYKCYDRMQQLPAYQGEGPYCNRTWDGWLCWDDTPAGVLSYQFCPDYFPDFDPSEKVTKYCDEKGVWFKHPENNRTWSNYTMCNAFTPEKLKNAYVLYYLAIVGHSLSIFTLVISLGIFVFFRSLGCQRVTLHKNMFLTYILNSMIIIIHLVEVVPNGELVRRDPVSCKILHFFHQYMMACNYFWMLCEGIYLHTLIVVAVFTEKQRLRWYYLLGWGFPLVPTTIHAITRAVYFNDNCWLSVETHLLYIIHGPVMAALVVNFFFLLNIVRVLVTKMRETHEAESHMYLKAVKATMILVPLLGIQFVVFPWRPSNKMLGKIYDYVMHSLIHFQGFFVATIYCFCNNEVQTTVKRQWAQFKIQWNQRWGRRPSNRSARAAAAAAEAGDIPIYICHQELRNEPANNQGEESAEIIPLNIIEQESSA


How the values were obtained:
[1] = target: T1, human amylin 3(a) receptor (human …); experiment: cell-based or functional assay
[2] = target: T2, human calcitonin (a) receptor; experiment: cell-based or functional assay

Binder	Amylin receptor human EC50 [1]	CTa receptor human EC50 [2]
{C18 diacid-γGlu}-HKCNTATCATQRLAEFLRHSSNNFGPILPPTNVGSHTY-NH2 (disulfide 3-8; SMILES CC[C@H](C)[C@H](NC(=O)[C@@H]1CCCN1C(=O)CNC(=O)[C@H](Cc1ccccc1)NC(=O)[C@H](CC(N)=O)NC(=O)[C@H](CC(N)=O)NC(=O)[C@H](CO)NC(=O)[C@H](CO)NC(=O)[C@H](Cc1c[nH]cn1)NC(=O)[C@H](CCCNC(=N)N)NC(=O)[C@H](CC(C)C)NC(=O)[C@H](Cc1ccccc1)NC(=O)[C@H](CCC(=O)O)NC(=O)[C@H](C)NC(=O)[C@H](CC(C)C)NC(=O)[C@H](CCCNC(=N)N)NC(=O)[C@H](CCC(N)=O)NC(=O)[C@@H](NC(=O)[C@H](C)NC(=O)[C@@H]1CSSC[C@H](NC(=O)[C@H](CCCCN)NC(=O)[C@H](Cc2c[nH]cn2)NC(=O)CC[C@H](NC(=O)CCCCCCCCCCCCCCCCC(=O)O)C(=O)O)C(=O)N[C@@H](CC(N)=O)C(=O)N[C@@H]([C@@H](C)O)C(=O)N[C@@H](C)C(=O)N[C@@H]([C@@H](C)O)C(=O)N1)[C@@H](C)O)C(=O)N[C@@H](CC(C)C)C(=O)N1CCC[C@H]1C(=O)N1CCC[C@H]1C(=O)N[C@H](C(=O)N[C@@H](CC(N)=O)C(=O)N[C@H](C(=O)NCC(=O)N[C@@H](CO)C(=O)N[C@@H](Cc1c[nH]cn1)C(=O)N[C@H](C(=O)N[C@@H](Cc1ccc(O)cc1)C(N)=O)[C@@H](C)O)C(C)C)[C@@H](C)O) [N-alpha-[(S)-4-Carboxy-4-(17-carboxyheptadecanoylamino)butyryl]-His-[Glu14,Arg17,His35]-pramlintide]	79.5 pM	946 pM
{C18 diacid-γGlu}-HKCNTATCATQRLAEFLHHSSNNFGPILPPTNVGSHTY-NH2 (disulfide 3-8; SMILES CC[C@H](C)[C@H](NC(=O)[C@@H]1CCCN1C(=O)CNC(=O)[C@H](Cc1ccccc1)NC(=O)[C@H](CC(N)=O)NC(=O)[C@H](CC(N)=O)NC(=O)[C@H](CO)NC(=O)[C@H](CO)NC(=O)[C@H](Cc1c[nH]cn1)NC(=O)[C@H](Cc1c[nH]cn1)NC(=O)[C@H](CC(C)C)NC(=O)[C@H](Cc1ccccc1)NC(=O)[C@H](CCC(=O)O)NC(=O)[C@H](C)NC(=O)[C@H](CC(C)C)NC(=O)[C@H](CCCNC(=N)N)NC(=O)[C@H](CCC(N)=O)NC(=O)[C@@H](NC(=O)[C@H](C)NC(=O)[C@@H]1CSSC[C@H](NC(=O)[C@H](CCCCN)NC(=O)[C@H](Cc2c[nH]cn2)NC(=O)CC[C@H](NC(=O)CCCCCCCCCCCCCCCCC(=O)O)C(=O)O)C(=O)N[C@@H](CC(N)=O)C(=O)N[C@@H]([C@@H](C)O)C(=O)N[C@@H](C)C(=O)N[C@@H]([C@@H](C)O)C(=O)N1)[C@@H](C)O)C(=O)N[C@@H](CC(C)C)C(=O)N1CCC[C@H]1C(=O)N1CCC[C@H]1C(=O)N[C@H](C(=O)N[C@@H](CC(N)=O)C(=O)N[C@H](C(=O)NCC(=O)N[C@@H](CO)C(=O)N[C@@H](Cc1c[nH]cn1)C(=O)N[C@H](C(=O)N[C@@H](Cc1ccc(O)cc1)C(N)=O)[C@@H](C)O)C(C)C)[C@@H](C)O) [N-alpha-[(S)-4-Carboxy-4-(17-carboxyheptadecanoylamino)butyryl]-His-[Glu14,His17,His35]-pramlintide]	58.5 pM	99 pM
KCNTATCATQRLAEFLVHSSSNFGK([AEEA-AEEA-γGlu-C18 diacid])ILPPTNVGSNTY-NH2 (disulfide 2-7; N-terminus assumed; SMILES CC[C@H](C)[C@H](NC(=O)[C@H](CCCCNC(=O)COCCOCCNC(=O)COCCOCCNC(=O)CC[C@H](NC(=O)CCCCCCCCCCCCCCCCC(=O)O)C(=O)O)NC(=O)CNC(=O)[C@H](Cc1ccccc1)NC(=O)[C@H](CC(N)=O)NC(=O)[C@H](CO)NC(=O)[C@H](CO)NC(=O)[C@H](CO)NC(=O)[C@H](Cc1c[nH]cn1)NC(=O)[C@@H](NC(=O)[C@H](CC(C)C)NC(=O)[C@H](Cc1ccccc1)NC(=O)[C@H](CCC(=O)O)NC(=O)[C@H](C)NC(=O)[C@H](CC(C)C)NC(=O)[C@H](CCCNC(=N)N)NC(=O)[C@H](CCC(N)=O)NC(=O)[C@@H](NC(=O)[C@H](C)NC(=O)[C@@H]1CSSC[C@H](NC(=O)[C@@H](N)CCCCN)C(=O)N[C@@H](CC(N)=O)C(=O)N[C@@H]([C@@H](C)O)C(=O)N[C@@H](C)C(=O)N[C@@H]([C@@H](C)O)C(=O)N1)[C@@H](C)O)C(C)C)C(=O)N[C@@H](CC(C)C)C(=O)N1CCC[C@H]1C(=O)N1CCC[C@H]1C(=O)N[C@H](C(=O)N[C@@H](CC(N)=O)C(=O)N[C@H](C(=O)NCC(=O)N[C@@H](CO)C(=O)N[C@@H](CC(N)=O)C(=O)N[C@H](C(=O)N[C@@H](Cc1ccc(O)cc1)C(N)=O)[C@@H](C)O)C(C)C)[C@@H](C)O)	89 pM	100 pM

Second part, the binder after the results:

Amylin receptor human EC50 [1]	CTa receptor human EC50 [2]	Binder
68.5 pM	96.5 pM	{C20 diacid-γGlu}-KCNTATCATQRLAEFLHRSSNNFGPILPPTNVGSHTY-NH2 (disulfide 2-7; SMILES CC[C@H](C)[C@H](NC(=O)[C@@H]1CCCN1C(=O)CNC(=O)[C@H](Cc1ccccc1)NC(=O)[C@H](CC(N)=O)NC(=O)[C@H](CC(N)=O)NC(=O)[C@H](CO)NC(=O)[C@H](CO)NC(=O)[C@H](CCCNC(=N)N)NC(=O)[C@H](Cc1c[nH]cn1)NC(=O)[C@H](CC(C)C)NC(=O)[C@H](Cc1ccccc1)NC(=O)[C@H](CCC(=O)O)NC(=O)[C@H](C)NC(=O)[C@H](CC(C)C)NC(=O)[C@H](CCCNC(=N)N)NC(=O)[C@H](CCC(N)=O)NC(=O)[C@@H](NC(=O)[C@H](C)NC(=O)[C@@H]1CSSC[C@H](NC(=O)[C@H](CCCCN)NC(=O)CC[C@H](NC(=O)CCCCCCCCCCCCCCCCCCC(=O)O)C(=O)O)C(=O)N[C@@H](CC(N)=O)C(=O)N[C@@H]([C@@H](C)O)C(=O)N[C@@H](C)C(=O)N[C@@H]([C@@H](C)O)C(=O)N1)[C@@H](C)O)C(=O)N[C@@H](CC(C)C)C(=O)N1CCC[C@H]1C(=O)N1CCC[C@H]1C(=O)N[C@H](C(=O)N[C@@H](CC(N)=O)C(=O)N[C@H](C(=O)NCC(=O)N[C@@H](CO)C(=O)N[C@@H](Cc1c[nH]cn1)C(=O)N[C@H](C(=O)N[C@@H](Cc1ccc(O)cc1)C(N)=O)[C@@H](C)O)C(C)C)[C@@H](C)O) [N-alpha-[(S)-4-Carboxy-4-(19-carboxynonadecanoylamino)butyryl]-[Glu14,His17,Arg18,His35]-pramlintide]
66 pM	110 pM	{C20 diacid-γGlu}-HCNTATCATQRLAEFLHRSSNNFGPILPPTNVGSHTY-NH2 (disulfide 2-7; SMILES CC[C@H](C)[C@H](NC(=O)[C@@H]1CCCN1C(=O)CNC(=O)[C@H](Cc1ccccc1)NC(=O)[C@H](CC(N)=O)NC(=O)[C@H](CC(N)=O)NC(=O)[C@H](CO)NC(=O)[C@H](CO)NC(=O)[C@H](CCCNC(=N)N)NC(=O)[C@H](Cc1c[nH]cn1)NC(=O)[C@H](CC(C)C)NC(=O)[C@H](Cc1ccccc1)NC(=O)[C@H](CCC(=O)O)NC(=O)[C@H](C)NC(=O)[C@H](CC(C)C)NC(=O)[C@H](CCCNC(=N)N)NC(=O)[C@H](CCC(N)=O)NC(=O)[C@@H](NC(=O)[C@H](C)NC(=O)[C@@H]1CSSC[C@H](NC(=O)[C@H](Cc2c[nH]cn2)NC(=O)CC[C@H](NC(=O)CCCCCCCCCCCCCCCCCCC(=O)O)C(=O)O)C(=O)N[C@@H](CC(N)=O)C(=O)N[C@@H]([C@@H](C)O)C(=O)N[C@@H](C)C(=O)N[C@@H]([C@@H](C)O)C(=O)N1)[C@@H](C)O)C(=O)N[C@@H](CC(C)C)C(=O)N1CCC[C@H]1C(=O)N1CCC[C@H]1C(=O)N[C@H](C(=O)N[C@@H](CC(N)=O)C(=O)N[C@H](C(=O)NCC(=O)N[C@@H](CO)C(=O)N[C@@H](Cc1c[nH]cn1)C(=O)N[C@H](C(=O)N[C@@H](Cc1ccc(O)cc1)C(N)=O)[C@@H](C)O)C(C)C)[C@@H](C)O)
366 pM	286 pM	{C20 diacid-γGlu}-CNTATCATQRLAEFLHHSSNNFGPILPPTNVGSHTY-NH2 (disulfide 1-6; SMILES CC[C@H](C)[C@H](NC(=O)[C@@H]1CCCN1C(=O)CNC(=O)[C@H](Cc1ccccc1)NC(=O)[C@H](CC(N)=O)NC(=O)[C@H](CC(N)=O)NC(=O)[C@H](CO)NC(=O)[C@H](CO)NC(=O)[C@H](Cc1c[nH]cn1)NC(=O)[C@H](Cc1c[nH]cn1)NC(=O)[C@H](CC(C)C)NC(=O)[C@H](Cc1ccccc1)NC(=O)[C@H](CCC(=O)O)NC(=O)[C@H](C)NC(=O)[C@H](CC(C)C)NC(=O)[C@H](CCCNC(=N)N)NC(=O)[C@H](CCC(N)=O)NC(=O)[C@@H](NC(=O)[C@H](C)NC(=O)[C@@H]1CSSC[C@H](NC(=O)CC[C@H](NC(=O)CCCCCCCCCCCCCCCCCCC(=O)O)C(=O)O)C(=O)N[C@@H](CC(N)=O)C(=O)N[C@@H]([C@@H](C)O)C(=O)N[C@@H](C)C(=O)N[C@@H]([C@@H](C)O)C(=O)N1)[C@@H](C)O)C(=O)N[C@@H](CC(C)C)C(=O)N1CCC[C@H]1C(=O)N1CCC[C@H]1C(=O)N[C@H](C(=O)N[C@@H](CC(N)=O)C(=O)N[C@H](C(=O)NCC(=O)N[C@@H](CO)C(=O)N[C@@H](Cc1c[nH]cn1)C(=O)N[C@H](C(=O)N[C@@H](Cc1ccc(O)cc1)C(N)=O)[C@@H](C)O)C(C)C)[C@@H](C)O) [N-alpha-[(S)-4-Carboxy-4-(19-carboxynonadecanoylamino)butyryl]-[des1,Glu14,His17,His35]-pramlintide]
